The target in data set [1] is HsSAS-6_CC_(Middle) (human) (UniProt Q6UVJ0). Description: SEC-MALS; step: monomers to the coiled-coil dimer; Superdex 75 or 200 10/300 GL, 10 mM K-PIPES pH 7.2.
Data set [2] concerns the target DrSAS-6_CC_(Middle) (Danio rerio) (UniProt Q7ZVT3). The description is as above.
Data set [3] deals with the molecule itself. Description: cryo-EM cartwheel reconstitution (ring stacking) assay; purified protein dialysed overnight at 4°C into 10 mM K-PIPES pH 7.2 (no salt), vitrified, isolated cartwheels analysed.
For data set [4], the target named is CrSAS-6_CC_(Middle) (C. reinhardtii) (UniProt A9CQL4). Description: ITC; dilution ITC, step: higher-order complex to coiled-coil dimers; 1.82 mM monomer in the syringe injected into buffer alone, 20°C, 10 mM K-PIPES pH 7.2, dissociation model.
The target is the same in data set [5]. Description: SEC-MALS; step: monomers to the coiled-coil dimer; Superdex 75 or 200 10/300 GL, 10 mM K-PIPES pH 7.2. Background: SEC sorts molecules by how far they enter the pores of the column.
Data set [6] deals with the molecule itself. Description: ITC. In general terms: In ITC the heat of successive injections is recorded.

In turn, “HsSAS-6_CC_(Middle) (from UniProt Q6UVJ0 211-312) (domain or fragment)” displayed a stoichiometry N in data set [1] of 2.

Consider “DrSAS-6_CC_(Middle) (from UniProt Q7ZVT3 243-358) (domain or fragment)”, for which, in data set [2], the stoichiometry N was found to be 2.

B1: CrSAS-6NL (domain or fragment, C. reinhardtii, UniProt A9CQL4 1-503, looked up)
chain: MPLLLDDGDPKAQTGFDLSTATTLFWRPVPVHVKQQDREDVLEELTFRILTGVAKQNHNLRILRIHISSDSDLFFLHTLEVSEEDFQSLKNDQGILVDFASFPGKIISLLEKCILAQPGDSPRFQAVLTIRGGESVFKIVEINDFKQLPHITLAFRPGNDSVVKQFLAFRLSEVKGTCHDLSDDLSRTRDDRDSMVAQLAQCRQQLAQLREQYDKHLLEVQAQAKTQQASAHEERIREKSQLKDQFEKERGEMEGRYRDQIAALNTRLGELDTENRKLREVKYELDTKVSELSHKLGSSEGSNRSLEEETARLRSLNQQLSSSKHELEIQLNEAKAKVLALDEKAQSQGDVIEQQRGRLRDMEAALRQTEQRCADLRDTLASAEGRAKEAQAEVLKGNQAIEKLTNDLRLAKEKTKRKAAIILRQEEELQEREQSLANATRDVGVLGQQAESLRKDVASLHSENDSLRSKLEDSKQQLQSNEQMIRWLNQQVTEAQLHASGAT
notes: C. reinhardtii SAS-6, residues 1-503: head domain and full-length coiled-coil domain, without the disordered C-terminal tail; also called WT CrSAS-6NL; C. reinhardtii SAS-6 (1-503); source: E. coli BL21(DE3), purified (HiTrap Talon, 3C cleavage, SEC); not shown: His6, N-terminal, cleaved
As to B1, the binding result in data set [3] is on record as “binds”.

B2: CrSAS-6LE (domain or fragment, C. reinhardtii, UniProt A9CQL4 1-503, looked up)
chain: MPLLLDDGDPKAQTGFDLSTATTLFWRPVPVHVKQQDREDVLEELTFRILTGVAKQNHNLRILRIHISSDSDLFFLHTLEVSEEDFQSLKNDQGILVDFASFPGKIISLLEKCILAQPGDSPRFQAVLTIRGGESVFKIVEINDFKQLPHITLAFRPGNDSVVKQFLAFRLSEVKGTCHDLSDDLSRTRDDRDSMVAQLAQCRQQLAQLREQYDKHLLEVQAQAKTQQASAHEERIREKSQLKDQFEKERGEMEGRYRDQIAALNTRLGELDTENRKLREVKYELDTKVSELSHKLGSSEGSNRSAEEETARLRSLNQQLSSSKHALEIQLNEAKAKVLALDEKAQSQGDVIEQQRGRLRDMEAALRQTEQRCADLRDTLASAEGRAKEAQAEVLKGNQAIEKLTNDLRLAKEKTKRKAAIILRQEEELQEREQSLANATRDVGVLGQQAESLRKDVASLHSENDSLRSKLEDSKQQLQSNEQMIRWLNQQVTEAQLHASGAT
notes: C. reinhardtii SAS-6, residues 1-503, control mutant; also called C. reinhardtii SAS-6 (1-503; L306A/E326A); source: E. coli BL21(DE3), purified (HiTrap Talon, 3C cleavage, SEC); not shown: His6, N-terminal, cleaved
Take B2: the binding result in data set [3] is “binds”.

B3: CrSAS-6VD (domain or fragment, C. reinhardtii, UniProt A9CQL4 1-503, looked up)
chain: MPLLLDDGDPKAQTGFDLSTATTLFWRPVPVHVKQQDREDVLEELTFRILTGVAKQNHNLRILRIHISSDSDLFFLHTLEVSEEDFQSLKNDQGILVDFASFPGKIISLLEKCILAQPGDSPRFQAVLTIRGGESVFKIVEINDFKQLPHITLAFRPGNDSVVKQFLAFRLSEVKGTCHDLSDDLSRTRDDRDSMVAQLAQCRQQLAQLREQYDKHLLEVQAQAKTQQASAHEERIREKSQLKDQFEKERGEMEGRYRDQIAALNTRLGELDTENRKLREVKYELDTKVSELSHKLGSSEGSNRSLEEETARLRSLNQQLSSSKHELEIQLNEAKAKVLALDEKAQSQGDEIEQQRGRLRNMEAALRQTEQRCADLRDTLASAEGRAKEAQAEVLKGNQAIEKLTNDLRLAKEKTKRKAAIILRQEEELQEREQSLANATRDVGVLGQQAESLRKDVASLHSENDSLRSKLEDSKQQLQSNEQMIRWLNQQVTEAQLHASGAT
notes: C. reinhardtii SAS-6, residues 1-503, mutant aimed at the asymmetric coiled-coil complex; also called C. reinhardtii SAS-6 (1-503 V351E/D361N); source: E. coli BL21(DE3), purified (HiTrap Talon, 3C cleavage, SEC); not shown: His6, N-terminal, cleaved
In the case of B3, the binding result in data set [3] is listed as “binds”.

B4: CrSAS-6LQ (domain or fragment, C. reinhardtii, UniProt A9CQL4 1-503, looked up)
chain: MPLLLDDGDPKAQTGFDLSTATTLFWRPVPVHVKQQDREDVLEELTFRILTGVAKQNHNLRILRIHISSDSDLFFLHTLEVSEEDFQSLKNDQGILVDFASFPGKIISLLEKCILAQPGDSPRFQAVLTIRGGESVFKIVEINDFKQLPHITLAFRPGNDSVVKQFLAFRLSEVKGTCHDLSDDLSRTRDDRDSMVAQLAQCRQQLAQLREQYDKHLLEVQAQAKTQQASAHEERIREKSQLKDQFEKERGEMEGRYRDQIAALNTRLGELDTENRKLREVKYELDTKVSELSHKLGSSEGSNRSLEEETARLRSLNQQASSSKHELEIALNEAKAKVLALDEKAQSQGDVIEQQRGRLRDMEAALRQTEQRCADLRDTLASAEGRAKEAQAEVLKGNQAIEKLTNDLRLAKEKTKRKAAIILRQEEELQEREQSLANATRDVGVLGQQAESLRKDVASLHSENDSLRSKLEDSKQQLQSNEQMIRWLNQQVTEAQLHASGAT
notes: C. reinhardtii SAS-6, residues 1-503, control mutant; also called C. reinhardtii SAS-6 (1-503; L320A/Q330A); source: E. coli BL21(DE3), purified (HiTrap Talon, 3C cleavage, SEC); not shown: His6, N-terminal, cleaved
Turning to B4, the binding result in data set [3] is recorded as “binds”.

B5: CrSAS-6LD (domain or fragment, C. reinhardtii, UniProt A9CQL4 1-503, looked up)
chain: MPLLLDDGDPKAQTGFDLSTATTLFWRPVPVHVKQQDREDVLEELTFRILTGVAKQNHNLRILRIHISSDSDLFFLHTLEVSEEDFQSLKNDQGILVDFASFPGKIISLLEKCILAQPGDSPRFQAVLTIRGGESVFKIVEINDFKQLPHITLAFRPGNDSVVKQFLAFRLSEVKGTCHDLSDDLSRTRDDRDSMVAQLAQCRQQLAQLREQYDKHLLEVQAQAKTQQASAHEERIREKSQLKDQFEKERGEMEGRYRDQIAALNTRLGELDTENRKLREVKYELDTKVSELSHKLGSSEGSNRSLEEETARLRSLNQQLSSSKHELEIQLNEAKAKVEALDEKAQSQGDVIEQQRGRLRDMEAALRQTEQRCADLRNTLASAEGRAKEAQAEVLKGNQAIEKLTNDLRLAKEKTKRKAAIILRQEEELQEREQSLANATRDVGVLGQQAESLRKDVASLHSENDSLRSKLEDSKQQLQSNEQMIRWLNQQVTEAQLHASGAT
notes: C. reinhardtii SAS-6, residues 1-503, mutant aimed at the symmetric coiled-coil complex; also called C. reinhardtii SAS-6 (1-503; L339E/D378N); source: E. coli BL21(DE3), purified (HiTrap Talon, 3C cleavage, SEC); not shown: His6, N-terminal, cleaved
Take B5: the binding result in data set [3] is “binds”.

B6: CrSAS-6_CC_(Middle) (domain or fragment)
chain: KLREVKYELDTKVSELSHKLGSSEGSNRSLEEETARLRSLNQQLSSSKHELEIQLNEAKAKVLALDEKAQSQGDVIEQQRGRLRDMEAALRQTEQRCADLRDTLASAEGRAKEA
In data set [4], B6 gave a dH of 4.2 kJ/mol. The molecule also registered a stoichiometry N in data set [5] of 2. For the same molecule, the dissociation constant Kd in data set [6] was 2.3 mM.

Broadly, the stoichiometry N is the number of molecules, sites or subunits per partner or assembly. As a reminder, the Kd is the free concentration of one partner at which half of the binding sites on the other are occupied at equilibrium, for simple one-to-one binding. Read a high Kd as lower affinity.

The values are drawn from article PMC9592557, “Structures of SAS-6 coiled coil hold implications for the polarity of the centriolar cartwheel” (Structure(London, England:1993), 2022).
